Earlier results as cited in publication PMC4028615.

Molecular target: integrin (LFA-1) (Homo sapiens) (UniProt P20701)
Sequence (P20701 26-1090, chain 1 of 2): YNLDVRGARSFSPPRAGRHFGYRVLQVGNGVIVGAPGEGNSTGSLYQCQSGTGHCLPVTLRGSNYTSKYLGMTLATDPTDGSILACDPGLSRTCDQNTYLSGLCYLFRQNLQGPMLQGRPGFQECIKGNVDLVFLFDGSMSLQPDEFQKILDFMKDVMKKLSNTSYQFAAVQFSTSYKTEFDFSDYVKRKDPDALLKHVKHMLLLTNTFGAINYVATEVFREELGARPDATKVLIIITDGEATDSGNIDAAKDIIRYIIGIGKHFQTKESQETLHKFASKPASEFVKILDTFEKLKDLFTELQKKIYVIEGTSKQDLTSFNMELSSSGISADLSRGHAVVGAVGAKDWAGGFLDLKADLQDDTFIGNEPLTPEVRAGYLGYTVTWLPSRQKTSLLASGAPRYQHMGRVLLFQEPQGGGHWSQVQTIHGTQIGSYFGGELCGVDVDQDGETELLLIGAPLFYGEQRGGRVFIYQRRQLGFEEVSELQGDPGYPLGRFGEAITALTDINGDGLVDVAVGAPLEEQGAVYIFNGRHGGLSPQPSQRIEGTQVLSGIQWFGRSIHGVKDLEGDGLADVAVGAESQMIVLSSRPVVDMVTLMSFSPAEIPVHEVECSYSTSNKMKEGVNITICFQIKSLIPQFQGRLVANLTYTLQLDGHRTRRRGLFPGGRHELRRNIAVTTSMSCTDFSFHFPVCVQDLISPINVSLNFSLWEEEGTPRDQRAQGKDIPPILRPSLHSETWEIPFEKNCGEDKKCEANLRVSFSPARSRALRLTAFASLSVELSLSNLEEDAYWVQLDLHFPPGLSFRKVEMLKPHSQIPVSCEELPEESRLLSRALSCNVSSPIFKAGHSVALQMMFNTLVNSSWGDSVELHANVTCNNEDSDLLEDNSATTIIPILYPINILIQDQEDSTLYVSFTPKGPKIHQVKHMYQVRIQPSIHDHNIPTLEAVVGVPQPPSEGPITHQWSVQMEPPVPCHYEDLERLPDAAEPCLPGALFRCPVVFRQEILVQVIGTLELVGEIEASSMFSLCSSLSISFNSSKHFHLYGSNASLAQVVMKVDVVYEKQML
Sequence (P05107 23-700, chain 2 of 2, further chain): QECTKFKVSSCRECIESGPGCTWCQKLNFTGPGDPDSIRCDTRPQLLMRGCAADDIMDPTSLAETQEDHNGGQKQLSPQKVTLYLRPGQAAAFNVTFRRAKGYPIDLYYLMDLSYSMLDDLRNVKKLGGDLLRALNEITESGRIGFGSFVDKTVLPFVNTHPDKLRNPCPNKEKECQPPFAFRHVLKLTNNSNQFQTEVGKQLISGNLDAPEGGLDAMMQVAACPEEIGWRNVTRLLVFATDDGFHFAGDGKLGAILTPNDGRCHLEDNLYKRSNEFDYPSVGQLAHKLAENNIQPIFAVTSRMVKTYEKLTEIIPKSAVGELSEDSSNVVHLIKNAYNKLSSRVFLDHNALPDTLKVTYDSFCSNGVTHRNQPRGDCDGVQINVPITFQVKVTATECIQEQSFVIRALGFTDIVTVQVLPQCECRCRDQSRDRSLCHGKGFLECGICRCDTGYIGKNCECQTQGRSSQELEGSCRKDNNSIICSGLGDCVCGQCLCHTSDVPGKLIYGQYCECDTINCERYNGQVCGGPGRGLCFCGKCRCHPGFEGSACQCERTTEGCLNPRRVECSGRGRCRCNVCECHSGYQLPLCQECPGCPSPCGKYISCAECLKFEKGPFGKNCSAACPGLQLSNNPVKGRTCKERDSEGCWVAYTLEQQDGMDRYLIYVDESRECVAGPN

Chain of ICAM-1 (P05362 28-480): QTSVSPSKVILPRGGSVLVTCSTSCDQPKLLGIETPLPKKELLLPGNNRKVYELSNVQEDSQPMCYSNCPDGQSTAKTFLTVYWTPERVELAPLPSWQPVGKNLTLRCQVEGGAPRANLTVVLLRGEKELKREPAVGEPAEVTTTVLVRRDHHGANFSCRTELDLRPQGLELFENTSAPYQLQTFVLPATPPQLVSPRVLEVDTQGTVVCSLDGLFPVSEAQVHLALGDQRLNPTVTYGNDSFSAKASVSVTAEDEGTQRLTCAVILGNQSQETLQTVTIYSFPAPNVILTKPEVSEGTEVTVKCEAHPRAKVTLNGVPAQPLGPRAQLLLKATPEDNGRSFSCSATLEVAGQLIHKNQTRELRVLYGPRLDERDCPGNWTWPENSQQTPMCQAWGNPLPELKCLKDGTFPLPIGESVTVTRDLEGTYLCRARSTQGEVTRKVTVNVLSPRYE

Kd: 100 nM
Substance: ICAM-1 (from UniProt P05362)
